Assay: protease stability score; higher = more stable; yeast display proteolysis, trypsin and chymotrypsin;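 also: relative to predicted unfolded state with 0 unfolded-like and 1 meaning tenfold more protease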
In the case of “SEDEEDLKRIVELLVRALKTGDEDLIRHLADPHVRLEVGDKEHHGREEYTRWAENFVERIDHVNIHIKRMTTIGNYLQMDVRLEERFDGRRVELRHYLIILKVDGRWVIKEVQIE”, the protease stability score is reported as 1.25. Sequence “SEEKHMYKKLIEEWLKSVITGDEEHIQHLVDPDVRMTIIFENHELRAVGWEEVVRVLKEIRIKHFELRRWDDVNGRVHLDGQMTIQFNGQEHQTSTHIEIMFINGRVKEIRLIIT” has a protease stability score of 0.986. Sequence “DEEERLRHEALKEWLETLVTGDERIIMEQLDPDARIDINGQEIHGMELFAKFMSEMGINVFDLKRTTIQGDKLRIEGVIKFNGKTHRVHVRSTKVDGRWRNKEVRVE” has a protease stability score of 1.43. With “HEEEELLERVIRLMVENIITGNEDQLNNLVDPHAKIDIDGVILHGRDWVRDLHERVDHMEVRITDWRMIGDKVQTDSRLTNRFNGKEYRRDVRFHAHKINGRWINQTIEIR” the protease stability score was 0.722. For “DEIDHRAREVAERILKSMLTGDFDTLRELMDPHVRVILSVNGRENHTVGREWFAHVVKEWIDRVDVHQIDVERVELQGEKVHMDTNLRIHYGDKSITRKTEIIIDVVDGRVHYVRFIIR”, the protease stability score was 2.52. With “DEDDERSRLFLEEMMRTLLTGDERKSHELADPRVRINVNGRHIHGRELWNRFVHEARIRITHHRIHSRDIYNGRIELDVELRGDIHIGDKDIHLDTRIILFVLKVNGRWHLEIMEIV” the protease stability score was 1.25. Sequence “SEEEKEAEDILRMVIHVLRTGDWHTLKNMLDPHAKNDVNGREQVGMRDWIETFTRIHRELGISNIDFKLHDIRITEHHVLVDGILIFNGKEYRLNLIITKINGRWVNEHIHLH” has a protease stability score of 1.08. For “SHVEEEAEHFWEELVRAYKTGDENLLKRLADPNVKVDINGRELIGREEFARVVSEERRQMRSHVELHDIRKDGDKMHINTILRIHIGDKEVSRTTHLHSIKVDGRWRLETWHIV”, the protease stability score was 1.06. With “SEMDENIHEALKEEMHAWVTGDFDKIEHLLDPNTRVEQGEFIYHGRFFVEFVRRRVDHVFWHHVEIRHIENVDGRMIIDGIVDFEETAENHRHRHTIRTIIYLEKIDGKWYIRSLEVK” the protease stability score was 0.874. In the case of “SEKTHEFQKLYHEWIRVEWTGDFHMLSHMADPNTRVELIINGRTVERIGREDMIELVRRLKHEIRFHDFDIKRVRIQGEKIYADTHEDGEINGQRRETDAKLELDVYNGKIESVFWYIE”, the protease stability score is reported as 1.13. Sequence “SEEEKDIKNAFRLLVKIIRTGDWEDHHKQMDPDVLIIVGDKEHHGWEEASRFMKEHLERVDHEDLKLRRVHIQGEKMELDGELFVNVDGRLIRMRVIFFLNKVNGRWVIHSLEIR” has a protease stability score of 2.28. For “DEDTRKIYHWAELIVELLMTGDEDILHELADPDVKVHINGVTLHGREEADKFLEEWLRRFKNIQIRIRRITVINGRVDVESEVNVGDKRKDSRIHATVVNGRWKIISMDDH”, the protease stability score was 1.42. Sequence “DEEKQDMDTAIKIFVEEYKTGDEENLLRNMDPEARVRQGDKHFHGREEVWKFWRRLFHDAGLDNVNVELRHITSQGNKIEVRGVLRIGDKELDVEFILKKVDGRWLIKFILFR” has a protease stability score of 1.91. “DEEEEELRRLLEEIFRNRVTGDEERWLELADPDVRLEEHINGQEIHLHGREDVAEHIREARIHSTEVKDVKVINGVIHLDEKIDGIINGVRRDTRVIVHIVVINGRIKSIRVIVN” gave a protease stability score of 1.65. Sequence “TEEERLHHELAKLMIHLMHTGDFDKLIKLVDPHAKLDEDVDGREVHVHGMEKWFEYLKEKFERIKNITIHIRDWRVYNGRVEIHVEYDINGKHVDTTIRLDVVNGRVKRIQIEQK” has a protease stability score of 2.16. With “DETDKLAFELMEELLENFHTGNEERFHQLFDPDVRIIVNGRTLHGRRHWHKILEDIIREWRIKHIHMERLISIGDKARLDMRWNVRVNGREVHTESHVNLTVVDGRITLLEIQHH” the protease stability score was 1.52. In the case of “SEEEESWRRIAEEELRIRKTGDEDRFRELHDPSVKIDWNGQIIVGWEELHEILRHIAERYPNLRFEVTHSDVIDGRVHIDGRLNVNGVTLEFHIESVIVNGRTKSIRIEVR”, the protease stability score is reported as 0.524. “EEMERDIKHAVEVMIRFWETGDERLLTELADPDTKSKIDGRTFHGREDIHKLFHSVIEKVKNIRIEFKRISVQGDKAKIDGTNNFNGREIKTDITLWKFDGRWILESIEIG” showed a protease stability score of 1.43. In the case of “HEDKQMMEEAVKLWIETSLTGDWRTFHRLADPHVKLQQGDKDLHGREDTRELMEKLGLDRVDIHIRKFRLYDGRIELHVEENFNGKVFEIFIDMRKVDGRWELHRVELR”, the protease stability score is reported as 1.43. “SEDENLIEEFLRRLMKWHNTGNFDEILNMVDPNTRIIVGDKFHHGRDALRYMWEFLGVDHVRIHVKRQEIIGDKVHNDTELEVNVNGKNLRIKEKLVVIKVNGVWILERIEIQ” showed a protease stability score of 1.48. In the case of “DEKDKITQDLVKNIIDLFRTGNEDDLRRLADPHVQTHVNGRTIIGMEDASRKIKEILEELGIDHVHWHHVQAQGEKVEIHMEHRVGDKNWELIIRMDLVNGRIKRQEVELR”, the protease stability score is reported as 0.927. Sequence “DEDRRHADEVLELFSEAFLTGNEEEMRKLADPHVRIDFNGRLKIGMETYKEEMDRFDHTEMRLESKHVHVFDGRVRIDGRLRIILRIGDKEIRHDHQVDILITKVDGRWIIKSMHIE” has a protease stability score of 2.53. Work on “SEDHENIERFLTHFVTAIETGNFNELEKLLDPNAQIEINGQRIHGREWFVDHIRRIKNIRFEIHVEDSEFYNGKAHIRTRLILKYGDKEREHDVVLVIRKINGRWVIEWIIIE” yielded a protease stability score of 1.54. Sequence “DEEKKFIHYLAHLLIELILTGDEDTFEKLADPDVRLSIFAENHELHWHGREEVLRELIHWTRRVDHIHMKLDHSRIINGKSHMDGNLVDIQGDKKIEKKVTVILVVVNGKVKRIEIWIG” has a protease stability score of 1.47. For “DEDEEQLHEMVRIFLENMQTGNFEALLNYMDPNAKRRDVQGDKDITYIGREQAKEHDEKLDRHLGVKHFEIKRITIQGEKADIDTRLLFNGQLRDVRIHIIIVNGKLSYLEVQID”, the protease stability score was 0.897. With “DESEDAVRKSMELWEESMRTGNEERLIELVDPNVRLDINGQIYHGWSQFVEVIFNEFRHARLESIEIHEVRLQGDKIRSRTTLVIRINGRLKHLDVRFIVKKVDGRWQIHSEERE” the protease stability score was 1.31. Work on “SEEQEKSEEFWRLVVEFLLTGDEHQILNLLDPNVLTEIGDKKYHGRELASEVLRRYADEIRLKEVELHDRDEVNGVLHLHTVVRGEYNGREINLESHWELEKVDGRWHIKRVEIR” yielded a protease stability score of 1.6. “REEEEQLKHFIEHRLHNFLTGNEERLHHLADPNMRIDINGKELHGREAYIYEFNRLGWEIKHIDIEHLEVQGDKVDVDLRFKGHIDGKTRHIKSKLIVLKVDGKWFDKDYFII” gave a protease stability score of 1.13. With “SEEERILEEILRRLLRLLATGDWEDLHKLFDPTVRIVFNGQLLHGWHEFIRTMHQLWVDRIRVERVRFQGDFQHYETRNDITINGVRIETESRVHVKIVDGRIKYFEFELT” the protease stability score was 2.53. Work on “SEDHEAAHDMLELLRHMELTGDENSLMDLLDPNAKNDVDGKVSVGREEWLRMVHFLLTRFDHIKSIEVEESRHIDGRLNYQTRLRGTVNGQDVELRTEWIVIKVNGKWFLHKVRFV” yielded a protease stability score of 1.24. For “DDKEEHWHELNRIYFEWFRTGDEELIAKNADPNVRYHIDGREFHGREDFDKLMDHLSRKFKNARIEFDDMRWQGDKLHLRGTLRVGDKNIDTRIHIVIVNGQLHLIIHIRD”, the protease stability score was 1.31. Sequence “DEIEEDMRKSIEDVIKAHLTGDEKTYRRLFDPHVRIDIDGVDFHGWEESRRMLQEIRISIEDWKIERMEIQGDKIHIDSRVDLTVYIDGKKERDTIERHIILVKFDGRWTIESVDFR” has a protease stability score of 1.37. “SEEEHVMVEIVRKLTEAKHTGDFKTEHELMDPHARIDINGVEIHGMEEWRHLYEEWRFIVHRTHVRHVHVQGDKVDLKGEFRGVIDYDGREIEYNTKVNLHLHKVDGRWQLHDVKTT” showed a protease stability score of 0.552. “SEKDQALTEMLEIFLQVHRTGNEEDMHRLADPNARSVYNGQDLHGWEHVFNIMRRIDHIHHVTVKRVEYFDGRVSLDGHINIEIGDKSYHIDISISLRKVDGQWHIESIEFI” showed a protease stability score of 0.721. “SEEEEIYHKLAEWSKRVLETGDWREWRKLADPNTRLHVHVNGRQLDHHGRELVLTIFLWLYKHLGVKHVDERDLDYYGNKIDIHVDDRYDGRTIHNRIILFIIDGKVTSTTVHIEHE” gave a protease stability score of 1.38. With “DEEERIAEEMISDWIHVMRTGNEELLKDMADPHVKVYIDGRDFHGMEFLVREYRQYDHNDSELRHFTVQGNYVFSEQMLKLTVNGQTITWEVHYKSLKVDGRWIVTLILLK” the protease stability score was 1.32. “SEDEEIARRYLEFFLHILRTGDFEEMLRLLDPHVRTHVDGREKHGRENVTTFFMRWWEDYGFDHVTLEDFRVHIYGEKIHIKIDGYFHFNGRSVDVKIHVIAKKINGRWLLHEMHFEVR” gave a protease stability score of 1.26. Sequence “SEDEELLHKVLNEFIHNVKTGDWEIITRLLDPHALLRVNGVNHIGREDLDRQLKKDFQEMRLHNIHVDDLKIQGEWIHVDTTLDIHINGVRVHFKAHIRVLKIDGRWIVHSREIR” has a protease stability score of 1.32. For “DEDEKWAERFLELLIRSLVTGDEKTLEELADPRVKVEIGDKILHGRDEFERFIHEARIKSVHVRRMTDINGVMLMDGETTGNIDGVDRRRRTRIWVLKINGQWHLHSYQVV”, the protease stability score was 1.41. Work on “DELEEVIQKVAEMWVRLYKTGNEEIIHKLADPDVRAVYNGVENIGMHRHVELLHRLLEEIRIHDIRINRIEVQGEKAHNDTQVHFIVGEKRETRETHIEIVVVNGVIKEVVIRIH” yielded a protease stability score of 0.629. With “SEEDEDAMRSAEFLVKKLNTGDEDWYQHLFDPHTKLEIGNFTSHGMHVSLKQWREMGADHVHVQDIDVFDGRVHVRTHIHVNGQTVEVLIILVKVNGRWIVERIRMK” the protease stability score was 0.66. With “SEEEEQFKKVFEIVIRFIITGDEHSMLKNADPNARLEIGDKEVIGMENLLERLTRIIDQFKNVRIEFHVKDHDLQGDKLHLETEIVLKFDGRELRIILHIVWTKINGRWIITSLSER” the protease stability score was 1.17. Sequence “DDVERIVKHMLELHIQSWLTGNEHLMHRLADPNVRSHIGDKERVGRHELSEMMIKHWEHLRIHRVEIRDSDVVGEKAESNTHVVVIFNGVEVRFDVRIEVVSINGRLHSSHIIIE” has a protease stability score of -0.029. Work on “SEDEELLKKFFERLLHALRTGDEDHLRTLIDPHARLIQGDKHYIGREQLEHSLHIILSHIRFEHHDSRREEIQGDKAIVHSHLIVRQGDKTYRLDVTFHLEKVNGRWVIREVDLN” yielded a protease stability score of 1.33. Work on “SEREEENRRAFHKFWEIIKTGDEELQDTFADPHVRLDVDGKEFHGREWIVRMLTELLRRFGVDHITFKHVEVQGDKLIIHHRDEVGDKKFELHVIVDKINGRWYERHVSMSER” yielded a protease stability score of 1.65. Sequence “HETEKLTKEYIREELEVLKTGDEKETRELLDPDVRIEQGEFSTHGWDYATHWLRTFTERVKGAQFEKKTIRVINGRVNIHMLMHFNGREERIDLISVKIDGRWLIKSVHIHIE” has a protease stability score of 0.208. Sequence “SELDEDSEEAVREDIETIKTGNEEMFKRLVDPNARTDFNGKELVGREAVLHFWTMILKTMGVDHVHIEEVRIFNGRLIMHHTIHVGDKFIEVILFSEKFNGKWQIKEIEIR” has a protease stability score of 0.053. For “DEEEEWLREVLRLIIEFLKTGDEDRLNEMADPTTRLRVGEFHHVGREEVHKFRKKKKDELGVDKIEFRLEDVRIQGDKATADGRVQYNGQEYKMRVIVVVVNGKVKSLTEEWE”, the protease stability score was 1.07. Work on “SEEEEEFRRAVEFIERTIQTGDERILRELADPHVRLEIGDKHDHGRERVVEIWVSIFEKFKNARWEIRDVKVIDGKIYIDGSLIIDGKEHQTLIVSEKVNGRWHLKSIHIH” yielded a protease stability score of 2.17. In the case of “SELEEEAKELIEEWLHSFSTGDEKKLYELADPDDRLLFNGVEFVGREEMLKNFRDLYRKWGVTRVEADVKRIHVFNGVAHSDTVSHYNGVRVKTHLVIEKINGRWRVSSLHIH”, the protease stability score is reported as 1.42.
